Data taken from US6884600B1, “Protein phosphatase-1 catalytic subunit interactions” (Medical Research Council London, priority 1996, dated 2005).
Blank lines part the entries; values can stand above or below the molecule they belong to.

Legend:
M21 subunit = assay: Far Western blotting: interaction with the M21 subunit; assay type: binding, chicken; details: probe 0.2 μg/ml
Description: A) PP1M 5 μg (track 1), 10 μg bacterial extract containing M110-(R714-I1004) (track 2), MBP-M110-(R714-I004) 1 μg (track 3), MBP-M110-(R714-L934) 1 μg (track 4), MBP-M110-(K933-I1004) 1 μg (track 5), MBP 1 μg (track 6), M110-(M1-E309) 2 μg (lane 7) and M110-(M1-S477) 2 μg (track 8) were run on a 12% SDS/polyacrylamide gel and stained with Coomassie Blue. B) same as A) except that 10-fold less protein was electrophoresed and after transfer to nitrocellulose the proteins were probed with digoxigenin-labelled M21 subunit (0.2 μg/ml). C) same as B) except that, after electrophoresis, the proteins were transferred to nitrocellulose and probed with digoxigenin-labelled M21-(M1-L146) (0.2 μg/ml).
A) GST-M21 5 μg (track 1), M21 5 μg (track 2), M21-(M1-L146) 5 μg (track 3), M21-(M1-E110) 20 μg (track 4) and M21-(E110-K186) 5 μg (track 5) were run on 16.5% polyacrylamide gels and stained with Coomassie Blue. The marker proteins ovalbumin (43 kDa) and carbonic anhydrase (29 kDa) are indicated. B) GST-M21 0.5 μg (track 1), M21 0.5 μg (track 2), M21-M1-L146) 0.5 μg (track 3), M21-(M1-E110) 5 μg (track 4) and M21-(E110-K186) 5 μg (track 5) were electrophoresed as in A) and after transfer to nitrocellulose the blots were probed with digoxigenin-labelled MBP-M110-(K933-I1004) (0.2 μg/Ml). C) same as B) except that, after electrophoresis, the proteins were transferred to nitrocellulose and probed with digoxigenin-labelled M21 subunit (0.2 μg/ml).
PP1M (0.5 μAg) was electrophoresed on a 12% SDS/polyacrylamide gel, transferred to nitrocellulose and probed with digoxigenin-labelled M21 subunit (0.2 μg/ml) (track 1) or digoxigenin-labelled M21-(M1-L146) (0.2 μg/ml) (track 2). The positions of the M110 subunit, the M21 subunit and PP1c are marked.
Proteins were labelled with digoxigenin and Far Western analyses carried out as described, except that the digoxigenin-labelled probe was used at a concentration of 0.2 μg/ml instead of 2 μg/ml. SDS/polyacrylamide gel electrophoresis was carried out on 7.5-15% gels according to Laemmli and on 16.5% gels according to Schagger and von Jagow. Protein was estimated according to Bradford.

myosin = molecular target: T1, myosin (Gallus gallus, UniProt P10587); assay: Myosin binding assay (pelleting with myosin); set-up: species or system chicken; details: myosin 1 μM, 15 min 0° C.
T1 construct: from tissue; host or cells: chicken gizzard
Description: The PP1 catalytic subunit (PP1c), PP1M, or PP1M lacking the M21 subunit, PP1M(ΔM21), each at 30 nM, were incubated for 15 min at 0° C. with 1 μM myosin and centrifuged (see Methods of Example 3). […] The results shown are the average (±S.E.M.) for three separate experiments each assayed in duplicate.
(A); PP1M, M110-(M1-S477) and GST-M110-(M377-K976), each at 30 nM were incubated for 15 min at 0° C. with 1 μM myosin and centrifuged. The supernatants (S), resuspended pellets (P) and the suspension before centrifugation (T, total) were electrophoresed on 12% SDS/polyacrylamide gels, transferred to nitrocellulose and immunoblotted with antibodies raised against the PP1M holoenzyme. No protein was pelleted in the absence of myosin (not shown). The positions of the marker proteins myosin heavy chain (200 kDa), glycogen phosphorylase (97 kDa), bovine serum albumin (66 kDa), ovalbumin (43 kDa), carbonic anhydrase (29 kDa) and soybean trypsin inhibitor (20 kDa) are indicated. (B) The experiments were carried out as in (A), except that the M110 fragments and M21 subunit were used at 100 nM, the 8.5 kDa M110-(K933-I1004) fragment was electrophoresed on a 16.5% polyacrylamide gel and immunoblotting was carried out with affinity purified antibodies (see Methods). A small amount of M110-(R714-I1004) pelleted in the absence of myosin. […] No other protein was pelleted in the absence of myosin.
(A); Myosin (1 μM) was mixed with 50 μM, 20 μM or 10 μM M21 subunit to give the molar ratios M21:myosin dimer indicated. After 15 min at 0° C., the solutions were centrifuged and the supernatants (S), resuspended pellets (P) and the suspension before centrifugation (T, total) were electrophoresed on 12% SDS/polyacrylamide gels and stained with Coomassie blue. The positions of the myosin heavy chain (MHC) and the M21 subunit are indicated. The myosin light chains migrate faster than the M21 subunit and are not visible at these loadings.
Myosin binding assays. Myosin (0.5 mg/ml, 1 μM in terms of myosin heavy chains) in 10 mM Hepes pH 7.5, 50 mM KCl, 5 mM MgCl2, 0.1% (by vol) 2-mercaptoethanol, was mixed with PP1M, M21 subunit, or fragments of the M110 and M21 subunits, at the concentrations indicated in figure legends. After incubation for 15 min at 0° C., the solutions were centrifuged for 2 min at 13,000×g, the supernatants removed, and the pellets washed twice in 10 mM Hepes pH 7.5, 50 mM KCl, 5 mM MgCl2, 0.1% (by vol) 2-mercaptoethanol before resuspension in 50 mM Tris-HCl pH 7.5, 0.1 mM EGTA, 0.03% (by mass) Brij 35, 0.6 M NaCl, 0.1% (by vol) 2-mercaptoethanol. Aliquots of the supernatant, the resuspended pellet and the suspension before centrifugation were either assayed for myosin P-light chain phosphatase activity or denatured in SDS and analysed by SDS/polyacrylamide gel electrophoresis.

T1 sequence (P10587 whole entry): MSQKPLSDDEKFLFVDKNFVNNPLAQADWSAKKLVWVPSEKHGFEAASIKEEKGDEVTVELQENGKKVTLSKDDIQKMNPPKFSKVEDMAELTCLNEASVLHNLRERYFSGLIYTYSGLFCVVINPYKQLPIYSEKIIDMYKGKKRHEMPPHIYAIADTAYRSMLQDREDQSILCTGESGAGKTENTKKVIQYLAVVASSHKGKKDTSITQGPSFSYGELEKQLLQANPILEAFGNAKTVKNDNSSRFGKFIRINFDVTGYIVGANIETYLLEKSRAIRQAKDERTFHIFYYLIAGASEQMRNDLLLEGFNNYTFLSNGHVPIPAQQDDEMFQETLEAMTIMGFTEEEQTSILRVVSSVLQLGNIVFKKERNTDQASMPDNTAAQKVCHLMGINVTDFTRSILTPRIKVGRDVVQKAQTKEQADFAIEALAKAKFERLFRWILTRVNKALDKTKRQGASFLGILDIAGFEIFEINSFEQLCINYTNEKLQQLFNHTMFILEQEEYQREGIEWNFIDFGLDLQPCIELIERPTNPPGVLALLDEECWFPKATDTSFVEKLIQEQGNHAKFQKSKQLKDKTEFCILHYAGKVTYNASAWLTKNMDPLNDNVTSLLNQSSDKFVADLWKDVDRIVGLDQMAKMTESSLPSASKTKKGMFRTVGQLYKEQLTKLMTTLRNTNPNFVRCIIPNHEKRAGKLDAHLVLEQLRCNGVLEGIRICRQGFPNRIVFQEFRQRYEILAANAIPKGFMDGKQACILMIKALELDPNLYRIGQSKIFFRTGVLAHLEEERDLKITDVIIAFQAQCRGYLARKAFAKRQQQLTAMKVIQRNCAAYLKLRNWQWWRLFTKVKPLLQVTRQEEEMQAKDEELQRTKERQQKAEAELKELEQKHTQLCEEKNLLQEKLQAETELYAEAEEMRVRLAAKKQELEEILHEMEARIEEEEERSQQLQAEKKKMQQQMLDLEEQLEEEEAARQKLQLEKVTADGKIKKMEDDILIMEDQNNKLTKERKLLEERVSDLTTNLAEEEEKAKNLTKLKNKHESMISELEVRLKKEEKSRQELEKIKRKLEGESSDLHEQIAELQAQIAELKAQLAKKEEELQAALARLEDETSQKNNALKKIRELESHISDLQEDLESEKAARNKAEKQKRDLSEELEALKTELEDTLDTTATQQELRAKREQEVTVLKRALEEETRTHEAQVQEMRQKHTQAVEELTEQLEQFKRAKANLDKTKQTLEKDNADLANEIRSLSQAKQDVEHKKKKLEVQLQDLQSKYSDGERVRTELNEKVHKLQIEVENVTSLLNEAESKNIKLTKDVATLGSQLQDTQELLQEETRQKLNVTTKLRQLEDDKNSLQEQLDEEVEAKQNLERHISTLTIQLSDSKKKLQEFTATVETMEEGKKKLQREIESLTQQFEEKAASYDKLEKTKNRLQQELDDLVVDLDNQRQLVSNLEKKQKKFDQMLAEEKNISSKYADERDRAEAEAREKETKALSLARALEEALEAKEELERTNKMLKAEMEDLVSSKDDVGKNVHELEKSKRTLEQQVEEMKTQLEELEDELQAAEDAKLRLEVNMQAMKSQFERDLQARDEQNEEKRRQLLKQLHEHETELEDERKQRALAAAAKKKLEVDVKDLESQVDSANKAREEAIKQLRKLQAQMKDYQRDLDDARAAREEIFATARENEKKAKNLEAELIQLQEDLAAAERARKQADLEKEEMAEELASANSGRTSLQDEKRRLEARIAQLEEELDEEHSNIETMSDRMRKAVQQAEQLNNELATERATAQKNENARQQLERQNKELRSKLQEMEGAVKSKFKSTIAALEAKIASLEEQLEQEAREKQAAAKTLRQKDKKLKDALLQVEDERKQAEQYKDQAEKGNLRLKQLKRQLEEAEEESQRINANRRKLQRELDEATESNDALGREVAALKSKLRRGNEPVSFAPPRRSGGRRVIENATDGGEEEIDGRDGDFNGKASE
T1 sequence (P02612 whole entry partner): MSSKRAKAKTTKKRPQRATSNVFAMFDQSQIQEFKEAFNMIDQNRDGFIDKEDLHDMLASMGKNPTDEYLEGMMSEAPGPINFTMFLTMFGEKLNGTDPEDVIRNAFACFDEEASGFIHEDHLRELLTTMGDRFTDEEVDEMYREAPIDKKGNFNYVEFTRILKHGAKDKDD
T1 sequence (P02607 whole entry partner): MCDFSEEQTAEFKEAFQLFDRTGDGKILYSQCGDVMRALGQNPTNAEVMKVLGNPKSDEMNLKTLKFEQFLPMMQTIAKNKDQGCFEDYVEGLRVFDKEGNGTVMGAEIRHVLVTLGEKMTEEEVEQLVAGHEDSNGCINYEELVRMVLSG

B1: M110-(K933-I1004): C-terminal 72 residues of the chicken gizzard M110 subunit (protein, UniProt Q90623 933-1004, looked up, fragment)
chain: KLYEQILAENEKLKAQLHDTNMELTDLKLQLEKTTQRQERFADRSLLEMEKRVSGKSQYLLGGKKSSRKKDI
- recognised by digoxigenin-labelled M21 subunit in Far Western blotting (M21 subunit): recognised
- binding to myosin (myosin): did not bind to myosin

B2: M110-(M1-S477): rat aorta M110 fragment, residues 1-477, GST tag removed (protein, UniProt Q10728 1-477, looked up, fragment)
chain: MKMADAKQKRNEQLKRWIGSETDLEPPVVKRQKTKVKFDDGAVFLAACSSGDTDEVLKLLHRGADINYANVDGLTALHQACIDDNVDMVKFLVENGANINQPDNEGWIPLHAAASCGYLDIAEFLIGQGAHVGAVNSEGDTPLDIAEEEAMEELLQNEVNRQGVDIEAARKEEERIMLRDARQWLNSGHISDVRHAKSGGTALHVAAAKGYTEVLKLLIQAGYDVNIKDYDGWTPLHAAAHWGKEEACRILVDNLCDMETVNKVGQTAFDVADEDILGYLEELQKKQNLLHSEKRDKKSPLIESTANMENNQPQKTFKNKETLIIEPEKNASRIESLEQEKADEEEEGKKDESSCSSEEDEEDDSESEAETDKTKPMASVTNAHTASTQAAPAAVTTPTLSSNQGTPTSPVKKFPTSTTKISPKEEERKDESPASWRLGLRKTGSYGALAEITASKEAQKEKDTAGVIRSASSPRLS
- recognised by digoxigenin-labelled M21 subunit in Far Western blotting (M21 subunit): not
- binding to myosin (myosin): did not bind to myosin

Further lines, with some results ahead:

- binding to myosin (myosin): bound to myosin
B3: M110-(R714-I1004): C-terminal 291 residues of the chicken gizzard M110 subunit (protein)
chain: RSTRTREQENEEKEKEEKEKQDKEKQEEKKESETKDDDYRQRYSRTVEEPYHRYRPTSTSTSTSSTSSLSTSTSSLSSSSQLNRPNSLIGITSAYSRSGTKESEREGGKKEEEKEEDKSQPKSIRERRRPREKRRSTGVSFWTQDSDENEQEHQSDSEEGTNKKETQSDSLSRYDTGSLSVSSGDRYDSAQGRSGSQSYLEDRKPYCSRLEKEDSTDFKKLYEQILAENEKLKAQLHDTNMELTDLKLQLEKTTQRQERFADRSLLEMEKRVSGKSQYLLGGKKSSRKKDI
- recognised by digoxigenin-labelled M21 subunit in Far Western blotting (M21 subunit): recognised

- binding to myosin (myosin): bound quantitatively to myosin
B4: complex between GST-M21 and M110-(R714-I1004): complex purified on glutathione-Sepharose from GST-M21 mixed with bacterial extract expressing M110-(R714-I1004) (protein)
GST-M21 (M21 part): MSSLFTRSKEYTRSRKSQSDSPPSSPSPIAKTLRHERLSRLEAATTPATSDSYSDRASSRSSAYSRRENRLAALSSRAEEESNRDYKKLYESALSENQKLKSKLQEAQLELADIKSKLEKAAQQKHEKTSDRSSMLEMEKREKRALERKLSEMEEEMKILTELKSDNQRLKDENGALIRVISKLSK
M110-(R714-I1004): B3 chain
modifications: left off: a dimerising Fc or GST; small tags and cut ends
